In patent US20110300138A1 (published 2011):

Columns and labels:
Test in all cases: cell-based or functional assay
[1] = target: TSHR with Trp258 mutated to Ala (human) (UniProt P16473)
[2] = target: TSHR with Tyr185 mutated to Ala, expressed in CHO cells (human) (UniProt P16473)
[3] = target: TSHR with Tyr206 mutated to Ala (expressed in CHO cells) (human) (UniProt P16473)
[4] = target: TSHR with Arg109 mutated to Ala, expressed in CHO cells (human) (UniProt P16473)
[5] = target: wild type TSHR (human TSH receptor) expressed in CHO cells (human) (UniProt P16473)

## TSH (ligand)
[1]
  Cyclic AMP produced, TSH 0.3 ng/mL, Experiment 1: 22.3 pmol/mL
  Cyclic AMP produced, TSH 0.3 ng/mL, Experiment 2: 17.3 pmol/mL
  Cyclic AMP produced, TSH 1 ng/mL, Experiment 1: 45.7 pmol/mL
  Cyclic AMP produced, TSH 1 ng/mL, Experiment 2: 49.2 pmol/mL
  Cyclic AMP produced; TSH 3 ng/mL; Experiment 1: 54 pmol/mL
  Cyclic AMP produced; TSH 3 ng/mL; Experiment 2: 84.7 pmol/mL
  Mutated/Wild type (%) of cyclic AMP produced, TSH 0.01 ng/mL, Experiment 1: 158%
  Mutated/Wild type (%) of cyclic AMP produced, TSH 0.01 ng/mL, Experiment 2: 77%
  Mutated/Wild type (%) of cyclic AMP produced, TSH 0.03 ng/mL, Experiment 1: 156%
  Mutated/Wild type (%) of cyclic AMP produced, TSH 0.03 ng/mL, Experiment 2: 141%
  Mutated/Wild type (%) of cyclic AMP produced, TSH 0.1 ng/mL, Experiment 1: 154%
  Mutated/Wild type (%) of cyclic AMP produced, TSH 0.1 ng/mL, Experiment 2: 156%
  Mutated/Wild type (%) of cyclic AMP produced, TSH 0.3 ng/mL, Experiment 1: 128%
  Mutated/Wild type (%) of cyclic AMP produced, TSH 0.3 ng/mL, Experiment 2: 128%
  Mutated/Wild type (%) of cyclic AMP produced, TSH 1 ng/mL, Experiment 1: 86%
  Mutated/Wild type (%) of cyclic AMP produced, TSH 1 ng/mL, Experiment 2: 114%
  Mutated/wild type (%) of cyclic AMP produced; TSH 3 ng/mL; Experiment 1: 76%
  Mutated/wild type (%) of cyclic AMP produced; TSH 3 ng/mL; Experiment 2: 100%
[2]
  Cyclic AMP produced (pmol/mL), mutated TSHR, TSH 0.01 ng/mL, Experiment 1: 3.33 pmol/mL
  Cyclic AMP produced (pmol/mL), mutated TSHR, TSH 0.01 ng/mL, Experiment 2: 3.82 pmol/mL
  Cyclic AMP produced (pmol/mL), mutated TSHR, TSH 0.03 ng/mL, Experiment 1: 3.85 pmol/mL
  Cyclic AMP produced (pmol/mL), mutated TSHR, TSH 0.03 ng/mL, Experiment 2: 5.6 pmol/mL
  Cyclic AMP produced (pmol/mL), mutated TSHR, TSH 0.1 ng/mL, Experiment 1: 8.36 pmol/mL
  Cyclic AMP produced (pmol/mL), mutated TSHR, TSH 0.1 ng/mL, Experiment 2: 12.3 pmol/mL
  Cyclic AMP produced (pmol/mL), mutated TSHR, TSH 0.3 ng/mL, Experiment 1: 21.1 pmol/mL
  Cyclic AMP produced (pmol/mL), mutated TSHR, TSH 0.3 ng/mL, Experiment 2: 30.5 pmol/mL
  Cyclic AMP produced (pmol/mL), mutated TSHR, TSH 1 ng/mL, Experiment 1: 37.8 pmol/mL
  Cyclic AMP produced (pmol/mL), mutated TSHR, TSH 1 ng/mL, Experiment 2: 50.6 pmol/mL
  Cyclic AMP produced (pmol/mL), mutated TSHR, TSH 3 ng/mL, Experiment 1: 42.9 pmol/mL
  Cyclic AMP produced (pmol/mL), mutated TSHR, TSH 3 ng/mL, Experiment 2: 56.3 pmol/mL
  Mutated/Wild type (%), TSH 0.01 ng/mL, Experiment 1: 128%
  Mutated/Wild type (%), TSH 0.01 ng/mL, Experiment 2: 98%
  Mutated/Wild type (%), TSH 0.03 ng/mL, Experiment 1: 90%
  Mutated/Wild type (%), TSH 0.03 ng/mL, Experiment 2: 101%
  Mutated/Wild type (%), TSH 0.1 ng/mL, Experiment 1: 76%
  Mutated/Wild type (%), TSH 0.1 ng/mL, Experiment 2: 93%
  Mutated/Wild type (%), TSH 0.3 ng/mL, Experiment 1: 65%
  Mutated/Wild type (%), TSH 0.3 ng/mL, Experiment 2: 86%
  Mutated/Wild type (%), TSH 1 ng/mL, Experiment 1: 45%
  Mutated/Wild type (%), TSH 1 ng/mL, Experiment 2: 62%
  Mutated/Wild type (%), TSH 3 ng/mL, Experiment 1: 35%
[3]
  Mutated/Wild type (%) of cyclic AMP produced, TSH 0.01 ng/mL, Experiment 1: 83%
  Mutated/Wild type (%) of cyclic AMP produced, TSH 0.01 ng/mL, Experiment 2: 135%
  Mutated/Wild type (%) of cyclic AMP produced, TSH 0.03 ng/mL, Experiment 1: 124%
  Mutated/Wild type (%) of cyclic AMP produced, TSH 0.03 ng/mL, Experiment 2: 144%
  Mutated/Wild type (%) of cyclic AMP produced, TSH 0.1 ng/mL, Experiment 1: 93%
  Mutated/Wild type (%) of cyclic AMP produced, TSH 0.1 ng/mL, Experiment 2: 178%
  Mutated/Wild type (%) of cyclic AMP produced, TSH 0.3 ng/mL, Experiment 1: 104%
  Mutated/Wild type (%) of cyclic AMP produced, TSH 0.3 ng/mL, Experiment 2: 110%
  Mutated/Wild type (%) of cyclic AMP produced, TSH 1 ng/mL, Experiment 1: 66%
  Mutated/Wild type (%) of cyclic AMP produced, TSH 1 ng/mL, Experiment 2: 93%
  Mutated/wild type (%) of cyclic AMP produced; TSH 3 ng/mL; Experiment 1: 62%
  Mutated/wild type (%) of cyclic AMP produced; TSH 3 ng/mL; Experiment 2: 97%
[4]
  Cyclic AMP produced, mutated TSHR, TSH 0.01 ng/mL: 3.15 pmol/mL
  Cyclic AMP produced, mutated TSHR, TSH 0.03 ng/mL: 4.92 pmol/mL
  Cyclic AMP produced, mutated TSHR, TSH 0.1 ng/mL: 8.39 pmol/mL
  Cyclic AMP produced, mutated TSHR, TSH 0.3 ng/mL: 39.2 pmol/mL
  Cyclic AMP produced, mutated TSHR, TSH 1 ng/mL: 43.8 pmol/mL
  Cyclic AMP produced, mutated TSHR, TSH 3 ng/mL: 55.2 pmol/mL
  Mutated/Wild type (%) of cyclic AMP produced, TSH 0.01 ng/mL: 115%
  Mutated/Wild type (%) of cyclic AMP produced, TSH 0.03 ng/mL: 116%
  Mutated/Wild type (%) of cyclic AMP produced, TSH 0.1 ng/mL: 89%
  Mutated/Wild type (%) of cyclic AMP produced, TSH 0.3 ng/mL: 99%
  Mutated/Wild type (%) of cyclic AMP produced, TSH 1 ng/mL: 72%
  Mutated/wild type (%) of cyclic AMP produced; TSH 3 ng/mL: 78%
[5]
  Cyclic AMP produced, wild type TSHR, TSH 0.01 ng/mL: 2.74 pmol/mL
  Cyclic AMP produced, wild type TSHR, TSH 0.03 ng/mL: 4.24 pmol/mL
  Cyclic AMP produced, wild type TSHR, TSH 0.1 ng/mL: 9.39 pmol/mL
  Cyclic AMP produced, wild type TSHR, TSH 0.3 ng/mL: 39.6 pmol/mL
  Cyclic AMP produced, wild type TSHR, TSH 1 ng/mL: 61.2 pmol/mL
  Cyclic AMP produced, wild type TSHR, TSH 3 ng/mL: 70.6 pmol/mL
